Experimental findings from paper PMC8298602, “14-3-3-protein regulates Nedd4-2 by modulating interactions between HECT and WW domains” (Communications Biology, 2021) are described below.

Substitutions are numbered along the chain they refer to. Where only a bound is given, the exact number is not on record here.

By stoichiometry N is commonly meant the number of molecules, sites or subunits per partner or assembly.

T1: 14-3-3β (human, UniProt P31946 1-246)
T1 construct: 14-3-3 protein beta, human
T1 sequence (looked up): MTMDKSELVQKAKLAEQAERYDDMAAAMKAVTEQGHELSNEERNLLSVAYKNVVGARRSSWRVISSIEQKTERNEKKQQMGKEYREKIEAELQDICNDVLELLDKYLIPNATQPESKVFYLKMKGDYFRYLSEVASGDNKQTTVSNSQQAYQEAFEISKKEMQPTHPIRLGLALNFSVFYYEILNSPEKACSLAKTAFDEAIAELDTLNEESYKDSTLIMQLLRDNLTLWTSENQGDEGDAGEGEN

T2: 14-3-3ζ (human, UniProt P63104 1-245)
T2 construct: 14-3-3 protein zeta, human
T2 sequence (looked up): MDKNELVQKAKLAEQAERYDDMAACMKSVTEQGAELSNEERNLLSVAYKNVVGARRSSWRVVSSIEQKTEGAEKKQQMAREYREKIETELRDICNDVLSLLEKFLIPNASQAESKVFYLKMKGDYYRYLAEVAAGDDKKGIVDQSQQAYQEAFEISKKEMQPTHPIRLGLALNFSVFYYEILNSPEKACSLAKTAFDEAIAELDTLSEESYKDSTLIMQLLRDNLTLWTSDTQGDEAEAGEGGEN

T3: 14-3-3τ (human, UniProt P27348 1-245)
T3 construct: 14-3-3 protein tau (theta), human
T3 sequence (looked up): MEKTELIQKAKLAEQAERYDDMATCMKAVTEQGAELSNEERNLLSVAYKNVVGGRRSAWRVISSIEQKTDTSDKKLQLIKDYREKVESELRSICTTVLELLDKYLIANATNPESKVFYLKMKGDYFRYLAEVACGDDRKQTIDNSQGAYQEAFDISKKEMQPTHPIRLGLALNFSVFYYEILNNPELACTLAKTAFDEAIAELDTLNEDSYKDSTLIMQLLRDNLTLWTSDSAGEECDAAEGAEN

T4: 14-3-3σ (human, UniProt P31947 1-248)
T4 construct: 14-3-3 protein sigma, human
T4 sequence (looked up): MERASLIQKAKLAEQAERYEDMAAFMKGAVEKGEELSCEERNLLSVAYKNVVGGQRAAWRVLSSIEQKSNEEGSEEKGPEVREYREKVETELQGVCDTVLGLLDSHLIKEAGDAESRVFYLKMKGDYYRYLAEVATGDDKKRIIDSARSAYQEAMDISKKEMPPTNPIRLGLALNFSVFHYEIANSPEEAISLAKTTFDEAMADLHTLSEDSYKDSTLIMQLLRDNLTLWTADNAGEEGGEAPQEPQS

T5: 14-3-3ε (human, UniProt P62258 1-255)
T5 construct: 14-3-3 protein epsilon, human
T5 sequence (looked up): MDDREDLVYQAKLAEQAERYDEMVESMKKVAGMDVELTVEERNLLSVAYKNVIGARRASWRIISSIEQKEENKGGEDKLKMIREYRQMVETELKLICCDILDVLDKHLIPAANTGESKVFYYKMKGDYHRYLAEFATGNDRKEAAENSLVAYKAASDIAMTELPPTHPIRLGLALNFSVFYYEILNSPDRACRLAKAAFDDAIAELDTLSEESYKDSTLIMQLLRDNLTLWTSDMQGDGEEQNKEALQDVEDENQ

T6: 14-3-3γ (human, UniProt P61981 2-247)
T6 construct: 14-3-3 protein gamma, human
T6 sequence: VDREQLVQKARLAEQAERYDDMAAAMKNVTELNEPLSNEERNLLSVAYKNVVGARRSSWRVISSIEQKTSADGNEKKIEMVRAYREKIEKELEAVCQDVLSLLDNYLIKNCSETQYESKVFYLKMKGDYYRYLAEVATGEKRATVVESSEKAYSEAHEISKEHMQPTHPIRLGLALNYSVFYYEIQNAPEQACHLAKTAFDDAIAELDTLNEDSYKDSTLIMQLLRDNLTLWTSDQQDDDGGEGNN

B1: phosphorylated Nedd4-2^335–455 (domain or fragment, human, UniProt Q96PU5 335-455, looked up)
chain: SSRLRSCSVTDAVAEQGHLPPPSAPAGRARSSTVTGGEEPTPSVAYVHTTPGLPSGWEERKDAKGRTYYVNHNNRTTTWTRPIMQLAEDGASGSATNSNNHLIEPQIRRPRSLSSPTVTLS
modifications: phosphoserine at 342, phosphothreonine at 367, phosphoserine at 448
notes: source: E. coli BL21 (DE3), purified (Chelating Sepharose, TEV cleavage, Superdex 75), phosphorylated by PKA in vitro; not shown: His6, N-terminal, cleaved; GB1 domain of protein G, N-terminal, cleaved
B2: Nedd^335-455pS342 + pT367 (domain or fragment, human, UniProt Q96PU5 335-455, looked up)
chain: B1 chain with S114A
modifications: phosphoserine at 342, phosphothreonine at 367
notes: as for B1
B3: Nedd^335-455pS342 + pS448 (domain or fragment, human, UniProt Q96PU5 335-455, looked up)
chain: B1 chain with T33A
modifications: phosphoserine at 342, phosphoserine at 448
notes: The same variant was used in native PAGE, SV-AUC and for the crystal with 14-3-3ηΔC; source: E. coli BL21 (DE3), purified (Chelating Sepharose, TEV cleavage, Superdex 75), phosphorylated by PKA in vitro; not shown: His6, N-terminal, cleaved; GB1 domain of protein G, N-terminal, cleaved
B4: Nedd^335-455pT367 (domain or fragment, human, UniProt Q96PU5 335-455, looked up)
chain: B1 chain with S8A, S114A
modifications: phosphothreonine at 367
notes: as for B1
B5: Nedd^335-455pS342 (domain or fragment, human, UniProt Q96PU5 335-455, looked up)
chain: B1 chain with T33A, S114A
modifications: phosphoserine at 342
notes: as for B1
B6: Nedd^335-455pT367 + pS448 (domain or fragment, human, UniProt Q96PU5 335-455, looked up)
chain: B1 chain with S8A
modifications: phosphothreonine at 367, phosphoserine at 448
notes: as for B1
B7: Nedd^335-455pS448 (domain or fragment, human, UniProt Q96PU5 335-455, looked up)
chain: B1 chain with S8A, T33A
modifications: phosphoserine at 448
notes: also called pSer^448; source: E. coli BL21 (DE3), purified (Chelating Sepharose, TEV cleavage, Superdex 75), phosphorylated by PKA in vitro; not shown: His6, N-terminal, cleaved; GB1 domain of protein G, N-terminal, cleaved
B8: 14-3-3η (natural protein, human)
chain: MGDREQLLQRARLAEQAERYDDMASAMKAVTELNEPLSNEDRNLLSVAYKNVVGARRSSWRVISSIEQKTMADGNEKKLEKVKAYREKIEKELETVCNDVLSLLDKFLIKNCNDFQYESKVFYLKMKGDYYRYLAEVASGEKKNSVVEASEAAYKEAFEISKEQMQPTHPIRLGLALNFSVFYYEIQNAPEQACLLAKQAFDDAIAELDTLNEDSYKDSTLIMQLLRDNLTLWTSDQQDEEAGEGN
notes: 14-3-3 protein eta, human; also called 14-3-3 protein (eta isoform); 14-3-3η dimer

The target of data set [1] is B8. Put plainly: AUC; sedimentation velocity, 20 °C, 20 mM Tris-HCl pH 7.5, 150 mM NaCl, 1 mM TCEP; 1 μM 14-3-3η with Nedd4-2^335–455 variants (0.05 – 5 μM); apparent KD, sw isotherm fitted with A + B ⇌ AB, 14-3-3η dimer + one Nedd4-2 molecule. Particulars: both partners purified.
A further data set concerns the target T1, 14-3-3β. Put plainly: native gel or EMSA; 12% native TBE-PAGE; 240 pmol of 14-3-3 and 120 pmol of the Nedd4-2 construct loaded. Particulars: both partners purified. For orientation: In EMSA bound probe runs differently from free probe, usually more slowly.
The target in a further data set is T2, 14-3-3ζ. The data set is described as above. Conditions: both partners purified.
Another data set addresses T3, 14-3-3τ. The data set is described as above. Conditions: both partners purified.
The target in the next data set is T4, 14-3-3σ. The data set is described as above. Particulars: both partners purified.
Another data set has as its target T5, 14-3-3ε. The data set is described as above. Particulars: both partners purified.
The next data set concerns the target T6, 14-3-3γ. The description is as above. Particulars: both partners purified.
In data set [2] the target is B8. The data set is described as above. Conditions: both partners purified.
Data set [3] deals with the molecule itself. Put plainly: SEC-SAXS; Superdex 200 Increase 5/150 GL, 20 mM Tris-HCl pH 7.5, 150 mM NaCl, 1 mM TCEP, 3% glycerol, 293.15 K; loaded 2.2 mg/ml Nedd4-2^186–975, 2 mg/ml 14-3-3η, 8.9 mg/ml complex (1:2, 60 μM). Background: SEC sorts molecules by how far they enter the pores of the column.

With B1, the Kd with 14-3-3η [1] is under 30 nM. Moreover, in the data set with 14-3-3η [1], the “stoichiometry N” value was 2 14-3-3η protomers per Nedd4-2 protomer. The binding result with 14-3-3β, with 14-3-3ζ, with 14-3-3τ, in the data set with 14-3-3σ, in the data set with 14-3-3ε and with 14-3-3γ was “binds” each time.

Take B2: in the data set with 14-3-3η [2], the binding result is listed as “binds”.

In the case of B3, the Kd in the data set with 14-3-3η [1] was under 30 nM.

Take B4: the Kd in the data set with 14-3-3η [1] worked out at 530 ± 30 nM.

As for B5, the Kd with 14-3-3η [1] was 400 ± 100 nM.

Regarding B6, the binding result in the data set with 14-3-3η [2] is “binds”.

Take B7: in the data set with 14-3-3η [2], the binding result is reported as “binds”.

For the molecule B8, the “stoichiometry N” value in data set [3] is 2.
